# Substitutions are numbered along the chain they refer to. Numbers in names are those of the source.
# B1: VRC07 G54H heavy chain complemented with VRC01 light chain (antibody, V domains shown)
# VH: QVRLSQSGGQMKKPGDSMRISCRASGYEFINCPINWIRLAPGKRPEWMGWMKPRHGAVSYARQLQGRVTMTRDMYSETAFLELRSLTSDDTAVYFCTRGKYCTARDYYNWDFEHWGQGTPVTVSS
# VL: EIVLTQSPGTLSLSPGETAIISCRTSQYGSLAWYQQRPGQAPRLVIYSGSTRAAGIPDRFSGSRWGPDYNLTISNLESGDFGVYYCQQYEFFGQGTKVQVDI
# B2: VRC07 G54W heavy chain complemented with VRC01 light chain (antibody, V domains shown)
# VH: B1 VH with H55W
# VL: B1 VL
# Target: HIV-1 Env-pseudoviruses (neutralization panels)
# Test: cell-based or functional assay
Binder,"fold improvement of neutralization over wild type VRC07 (IC50), six-virus panel, TZM-bl [fold]","fold improvement of neutralization over wild type VRC07 (IC80), six-virus panel, TZM-bl [fold]",fold increase of neutralization over VRC01 [fold],fold increase of neutralization over VRC07 [fold],fold increase of neutralization potency compared to VRC07 heavy chain with VRC01 light chain [fold],fold increase of neutralization potency over VRC01 [fold],fold increase of neutralization potency over VRC07 [fold],"neutralization potency relative to VRC07, panel of 7-12 HIVs [fold]","neutralization potency relative to mature VRC01, panel of 7-12 HIVs [fold]"
B1,2.3,2.5,7,2.5,> 2,,,,
B2,,,,,,13,4.8,> 2,> 8

# Reference: patent US20140322163A1
